Test results taken from patent US20260193315A1 (FBD BIOLOGICS, published 2026).

Legend:
[1] = target: T1, 4-1BB (coated on ELISA plate) (UniProt Q07011 24-186, limits assumed); experiment: ELISA on coated 4-1BB, supernatant
Description: (§1) After centrifugation, culture supernatant was collected for determination of expression and binding activity of the 4-1BBL variants. To determine expression of the 4-1BBL variants, a 96-well plate (flat bottom) was coated with 2 μg/ml anti-His tag antibody overnight. The pre-coated plate was then blocked with 5% milk in PBS at room temperature (RT) for 1 hour. After blocking, 30 μl of bacterial supernatant was added to each well of the plate, and the plate was incubated for 1 hour at RT. After the incubation, anti-c-myc-HRP was added, and the expression level of 4-1BBL variants can be determined by measuring OD450 in a plate reader. To determine binding activity of the 4-1BBL variants, a 96-well plate (flat bottom) was coated with 0.5 μg/ml of 4-1BB overnight. The pre-coated plate was then blocked with 5% milk in PBS at RT for 1 hour. After blocking, 30μ of bacterial supernatant was added to each well of the plate, and the plate was incubated for 1 hour at RT. After the incubation, anti-c-myc-HRP was added, and the 4-1BB-binding activity of 4-1BBL variants can be determined by measuring OD450 in a plate reader.
(§2) The 4-1BB-binding activity was measured using the same methods described above. With respect to 4-1BB-mediated NF-κB reporter activity, a 96-well plate (flat bottom) was coated with 5 μg/ml anti-c-myc antibody at 4° C. overnight. The induced 4-1BBL variant supernatants were added to the pre-coated plate, and the plate was incubated at 37° C. for 2 hours. The above steps were repeated for six times. Afterwards, 1×10⁵/well of transfected NF-κB Jurkat cells expressing 4-1BB was added to the plate, which was then incubated for 5 hours at 37° C. After the incubation, the luminance signal was detected to determine the 4-1BB reporter activity.

[2] = target: T1, 4-1BB (coated on ELISA plate); experiment: ELISA, binding OD450 / expression OD450, after 45 °C 30 min
Description: as §1

[3] = target: T1, 4-1BB (coated on ELISA plate); experiment: ELISA, binding OD450 / expression OD450
Description: as §1

[4] = target: T1, 4-1BB (coated on ELISA plate); experiment: ELISA, binding/expression ratio relative to WT
Description: as §1, §2

[5] = target: T1, 4-1BB (coated on ELISA plate); experiment: ELISA on coated 4-1BB, supernatant, OD450
Description: as §1

[6] = target: T1, 4-1BB (coated on ELISA plate); experiment: ELISA on coated 4-1BB, supernatant after 45 °C 30 min, OD450
Description: as §1

[7] = target: 4-1BB on transfected NF-κB Jurkat cells (UniProt Q07011 24-255, limits assumed); experiment: cell-based or functional assay
[8] = target: T1, 4-1BB (coated on ELISA plate); experiment: ELISA, binding OD450 / expression OD450; remark: listed apart in the source
Description: as §1, §2

Chain of 4-1BB on transfected NF-κB Jurkat cells (Q07011 24-255 limits assumed): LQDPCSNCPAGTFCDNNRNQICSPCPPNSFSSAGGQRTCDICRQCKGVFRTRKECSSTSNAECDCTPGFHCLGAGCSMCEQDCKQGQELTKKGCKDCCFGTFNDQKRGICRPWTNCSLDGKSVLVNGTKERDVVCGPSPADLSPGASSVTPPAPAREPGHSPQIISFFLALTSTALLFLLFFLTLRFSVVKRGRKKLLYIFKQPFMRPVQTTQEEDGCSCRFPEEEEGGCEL

B1: 1D2 (ligand)
4-1BBL variant: ACPWAVSGARASPGSAASPRLREGPELSPDDPAGLLDLRQGMFAQLVAQNVLLIDGPLSWYEDPGLAGVSLTGGLSYKEDTKELVVAKAGVYYVFFQLELRRVVAGTGSGSVSLALHLQPLRSAAGAAALALTVDLPPASSEARNSAFGFQGRLLHLSAGQRLGVHLHTEARARHALQLTQGATVLGLFRVTPEIPAGLPSPRSE
notes: also called 4-1BBL variant 1D2 (phagemid clone, bacterial supernatant)
In the case of B1, the “Binding (OD450)” value [1] is reported as 1.35 OD450, the “Binding / Expression ratio (45degrees)” value [2] is reported as 0.553 and the “Binding / Expression ratio (25 degrees)” value [3] is reported as 0.525. The “Binding (vs wt)” value [4] was 0.38, the “Binding (25 °C)” value [5] was 1.16 and the “Binding (45 °C)” value [6] was 0.803. The “Reporter (RLU)” value [7] was 4390 RLU, the “Reporter (vs wt)” value [7] was 0.75 and the Reporter/Expression ratio [7] was 2150. It also gave a Binding/Expression ratio [8] of 0.66.

B2: 8E2 (ligand)
4-1BBL variant: ACPWAVSGARASPGSAASPRLREGPELSPDDPAGLLDLRQGMFAQLVAQNVLLIDGPLSWYPDPGLAGVSLTGGLSYKEDTKELVVAKAGVYYVFFQLELRRVVAFEGSGSVSLALHLQPLRSAAGAAALALTVDLPPASSEARNSAFGFQGRLLHLSAGQRLGVHLHTEARARHSWQLTQGATVLGLFRVTPEIPAGLPSPRSE
notes: also called 4-1BBL variant 8E2 (phagemid clone, bacterial supernatant)
With B2 the “Binding (OD450)” value [1] was 0.392 OD450, the “Binding / Expression ratio (45degrees)” value [2] was 0.388 and the “Binding / Expression ratio (25 degrees)” value [3] was 0.188. For the same binder, the “Binding (vs wt)” value [4] was 0.12, the “Binding (25 °C)” value [5] was 0.231 and the “Binding (45 °C)” value [6] was 0.309. For the same binder, the “Reporter (RLU)” value [7] was 4880 RLU, the “Reporter (vs wt)” value [7] was 0.9 and the Reporter/Expression ratio [7] was 2570. The Binding/Expression ratio [8] was 0.21.

B3: 4C2 (ligand)
4-1BBL variant: ACPWAVSGARASPGSAASPRLREGPELSPDDPAGLLDLRQGMFAQLVAQNVLLIDGPLSWYPDPGLAGVSLTGGLSYKEDTKELVVAKAGVYYVFFQLELRRVVAGRGSGSVSLALHLQPLRSAAGAAALALTVDLPPASSEARNSAFGFQGRLLHLSAGQRLGVHLHTEARARHAWQFTQGATVLGLFRVTPEIPAGLPSPRSE
notes: also called 4-1BBL variant 4C2 (phagemid clone, bacterial supernatant)
B3 was tested, and the “Binding (OD450)” value [1] was 1.12 OD450, the “Binding / Expression ratio (45degrees)” value [2] was 0.506 and the “Binding / Expression ratio (25 degrees)” value [3] was 0.431. The “Binding (vs wt)” value [4] was 0.38, the “Binding (25 °C)” value [5] was 0.657 and the “Binding (45 °C)” value [6] was 0.823. For the same binder, the “Reporter (RLU)” value [7] was 3420 RLU, the “Reporter (vs wt)” value [7] was 0.71 and the Reporter/Expression ratio [7] was 2040. It also gave a Binding/Expression ratio [8] of 0.67.

B4: 8B10 (ligand)
4-1BBL variant: ACPWAVSGARASPGSAASPRLREGPELSPDDPAGLLDLRQGMFAQLVAQNVLLIDGPLSWYTDPGLAGVSLTGGLSYKEDTKELVVAKAGVYYVFFQLELRRVVAGMGSGSVSLALHLQPLRSAAGAAALALTVDLPPASSEARNSAFGFQGRLLHLSAGQRLGVHLHTEARARHSWQLTQGATVLGLFRVTPEIPAGLPSPRSE
notes: also called 4-1BBL variant 8B10 (phagemid clone, bacterial supernatant)
In the case of B4, the “Binding (OD450)” value [1] is reported as 1.75 OD450, the “Binding / Expression ratio (45degrees)” value [2] is reported as 0.636 and the “Binding / Expression ratio (25 degrees)” value [3] is reported as 1.79. The “Binding (vs wt)” value [4] was 1.52, the “Binding (25 °C)” value [5] was 1.5 and the “Binding (45 °C)” value [6] was 0.182. For the same binder, the “Reporter (RLU)” value [7] was 8820 RLU, the “Reporter (vs wt)” value [7] was 4.66 and the Reporter/Expression ratio [7] was 13300. The Binding/Expression ratio [8] was 2.65.

B5: 4E10 (ligand)
4-1BBL variant: ACPWAVSGARASPGSAASPRLREGPELSPDDPAGLLDLRQGMFAQLVAQNVLLIDGPLSWYPDPGLAGVSLTGGLSYKEDTKELVVAKAGVYYVFFQLELRRVVAREGSGSVSLALHLQPLRSAAGAAALALTVDLPPASSEARNSAFGFQGRLLHLSAGQRLGVHLHTEARARHAMQLTQGATVLGLFRVTPEIPAGLPSPRSE
notes: also called 4-1BBL variant 4E10 (phagemid clone, bacterial supernatant)
With B5 the “Binding (OD450)” value [1] was 0.975 OD450, the “Binding / Expression ratio (45degrees)” value [2] was 0.885 and the “Binding / Expression ratio (25 degrees)” value [3] was 0.679. For the same binder, the “Binding (vs wt)” value [4] was 0.6, the “Binding (25 °C)” value [5] was 1.36 and the “Binding (45 °C)” value [6] was 1.25. The “Reporter (RLU)” value [7] was 7360 RLU, the “Reporter (vs wt)” value [7] was 2.74 and the Reporter/Expression ratio [7] was 7830. The Binding/Expression ratio [8] was 1.04.

B6: 5D9 (ligand)
4-1BBL variant: ACPWAVSGARASPGSAASPRLREGPELSPDDPAGLLDLRQGMFAQLVAQNVLLIDGPLSFYSDPGLAGVSLTGGLSYKEDTKELVVAKAGVYYVFFQLELRRVVAGTGSGSVSLALHLQPLRSAAGAAALALTVDLPPASSEARNSAFGFQGRLLHLSAGQRLGVHLHTEARARHAWQMTQGATVLGLFRVTPEIPAGLPSPRSE
notes: also called 4-1BBL variant 5D9 (phagemid clone, bacterial supernatant)
In the case of B6, the “Binding (OD450)” value [1] is reported as 1.98 OD450, the “Binding / Expression ratio (45degrees)” value [2] is reported as 0.537 and the “Binding / Expression ratio (25 degrees)” value [3] is reported as 1.53. For the same binder, the “Binding (vs wt)” value [4] was 1.01, the “Binding (25 °C)” value [5] was 1.43 and the “Binding (45 °C)” value [6] was 0.205. For the same binder, the “Reporter (RLU)” value [7] was 4780 RLU, the “Reporter (vs wt)” value [7] was 1.48 and the Reporter/Expression ratio [7] was 4240. The Binding/Expression ratio [8] was 1.75.
